Assay results from publication PMC5531834.

Legend:
8N-Gag (Δp6) (HIV-1) [1] = assay: FCS Cy5 quenching; details: 20 mM Tris-HCl pH 7.5, 0.2 M NaCl (varied in salt titrations), 5 mM MgCl2, 1 uM ZnCl2, 0.1 mM PMSF, 1 mM BME, 0.05% Tween 20; 15 nM RNA; overnight 4 C, FCS at …
[2] = system: WT-Gag (HIV-1 Δp6 Gag) (HIV-1); assay: FCS Cy5 quenching; details: 20 mM Tris-HCl pH 7.5, 0.2 M NaCl (varied in salt titrations), 5 mM MgCl2, 1 uM ZnCl2, 0.1 mM PMSF, 1 mM BME, 0.05% Tween 20; 15 nM RNA; overnight 4 C, FCS at …
8N-Gag (Δp6) (HIV-1) [3] = assay: FCS Cy5 quenching, competition; details: 20 mM Tris-HCl pH 7.5, 0.2 M NaCl (varied in salt titrations), 5 mM MgCl2, 1 uM ZnCl2, 0.1 mM PMSF, 1 mM BME, 0.05% Tween 20; 15 nM RNA; overnight 4 C, FCS at …
[4] = system: WT-Gag (HIV-1 Δp6 Gag) (HIV-1); assay: FCS Cy5 quenching, competition; details: 20 mM Tris-HCl pH 7.5, 0.2 M NaCl (varied in salt titrations), 5 mM MgCl2, 1 uM ZnCl2, 0.1 mM PMSF, 1 mM BME, 0.05% Tween 20; 15 nM RNA; overnight 4 C, FCS at …
8N-Gag (Δp6) (HIV-1) [5] = assay: FCS Cy5 quenching; details: 20 mM Tris-HCl pH 7.5, 0.2 M NaCl (varied in salt titrations), 5 mM MgCl2, 1 uM ZnCl2, 0.1 mM PMSF, 1 mM BME, 0.05% Tween 20; 15 nM RNA; overnight 4 C, FCS at …; remark: listed apart in the source
[6] = biological target: Gag (Human immunodeficiency virus 1) (UniProt O93182); details: cited from earlier work
[7] = system: WT-Gag (HIV-1 Δp6 Gag) (HIV-1); assay: FCS Cy5 quenching; details: 20 mM Tris-HCl pH 7.5, 0.2 M NaCl (varied in salt titrations), 5 mM MgCl2, 1 uM ZnCl2, 0.1 mM PMSF, 1 mM BME, 0.05% Tween 20; 15 nM RNA; overnight 4 C, FCS at …; remark: listed apart in the source

Sequence of Gag (O93182 2-500): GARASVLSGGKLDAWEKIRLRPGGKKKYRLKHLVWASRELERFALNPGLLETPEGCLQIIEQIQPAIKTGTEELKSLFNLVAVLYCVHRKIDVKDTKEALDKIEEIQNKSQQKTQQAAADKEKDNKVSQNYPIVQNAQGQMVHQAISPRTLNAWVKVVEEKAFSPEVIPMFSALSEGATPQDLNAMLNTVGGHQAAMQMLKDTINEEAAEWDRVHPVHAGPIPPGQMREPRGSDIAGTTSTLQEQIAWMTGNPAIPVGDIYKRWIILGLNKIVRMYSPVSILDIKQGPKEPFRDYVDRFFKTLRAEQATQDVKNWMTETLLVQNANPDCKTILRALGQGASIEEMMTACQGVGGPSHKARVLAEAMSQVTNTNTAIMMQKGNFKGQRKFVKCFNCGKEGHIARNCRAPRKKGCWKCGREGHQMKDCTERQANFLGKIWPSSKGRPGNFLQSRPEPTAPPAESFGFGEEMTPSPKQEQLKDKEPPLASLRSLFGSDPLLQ

Substance | Kd (8N-Gag (Δp6) (HIV-1) [1]) [nM] | Kd [2] [nM] | Kd (8N-Gag (Δp6) (HIV-1) [3]) [nM] | Kd [4] [nM] | Kd (8N-Gag (Δp6) (HIV-1) [5]) [nM] | Kd [6] [nM] | Kd [7] [nM]
GRPE RNA | 145 | 44.2 | 154 | 315 | > 1000 |  | 
Gag (from UniProt O93182) |  |  |  |  |  | 10000 | 
HIV Ψ1 (monomeric HIV-1 Ψ RNA) | 60 | 21.4 | 60 | 53.3 |  |  | 26
HIV Ψ2 (dimeric HIV-1 Ψ RNA) | 43.2 | 20.3 | 54.7 | 37 | > 1000 |  | 
MoMLV Ψ RNA | 59.8 | 25.9 | 59 | 119 |  |  | 
